From paper doi:10.1101/2023.05.02.539095 (bioRxiv, 2023) come the findings set out here.

The target of assay [1] is 0317ΔCD (MSMEG_0317 lacking the C-terminal cytoplasmic domain) (M. smegmatis). The assay is described as follows: SEC-MALS. A general note: In gel filtration, larger molecules generally elute earlier.
For assay [2], the target named is 0317ΔNH (MSMEG_0317 lacking the N-terminal TM helix) (M. smegmatis). Description: SEC-MALS.

Broadly, the stoichiometry N is a count of units in the complex or per binding partner.

Consider “0317ΔCD (MSMEG_0317 lacking the C-terminal cytoplasmic domain) (domain or fragment)”, for which the stoichiometry N in assay [1] amounted to 2.
With “0317ΔNH (MSMEG_0317 lacking the N-terminal TM helix) (domain or fragment)”, the stoichiometry N in assay [2] was determined as 2.
